Test results published in patent publication US20110038917A1, “THERAPEUTIC COMPOSITIONS AND METHODS FOR TREATING GRAM-NEGATIVE BACTERIAL INFECTIONS” (RQ Bioscience, Inc., priority 2007, published 2011).

Details: human, in vivo
Experimental: The patient dissolved varying amounts of grape seed powder containing 20% (w/w) of oligomeric proanthocyanidin (OPC) in 37% alcohol/water to produce solutions having OPC concentrations of 1,000 mg/ml, 2,000 mg/ml and 4,000 mg/ml. Each of the solutions were filtered the resulting filtrate then diluted 1:1 with water to produce solutions having final concentrations of 500 mg OPC/l, 1,000 mg OPC/l and 2,000 mg OPC/l. They loaded 3 ml of the 500 mg OPC/l solution into an inhaler and self-administered the solution to their lungs two to three times/day for a few days. […] They performed the same experiment with each of the higher concentration OPC solutions. […] The patient then prepared a solution of bovine apolactoferrin. The lactoferrin was manufactured by Life Extension as a solid in a capsule. The patient broke open capsules and dissolved the lactoferrin therein in 18.5% alcohol/water to final concentrations ranging from 1 g lactoferrin/l to 4.5 g lactoferrin/l. […] The patient reported a relief from all signs of their infection, including coughing, for 4 to 5 hours following administration of the lactoferrin. After that time, their condition began to return to the pre-treatment state. […] It is theorized that this may have been due to a build-up in the patient's lungs of contaminants present in the OPC/lactoferrin preparation that could not be removed by filtration prior to administration. […]

B1: lactoferrin: bovine apolactoferrin manufactured by Life Extension as a solid in a capsule, dissolved in 18.5% alcohol/water (protein, UniProt P24627 20-708, looked up)
Lactotransferrin: APRKNVRWCTISQPEWFKCRRWQWRMKKLGAPSITCVRRAFALECIRAIAEKKADAVTLDGGMVFEAGRDPYKLRPVAAEIYGTKESPQTHYYAVAVVKKGSNFQLDQLQGRKSCHTGLGRSAGWIIPMGILRPYLSWTESLEPLQGAVAKFFSASCVPCIDRQAYPNLCQLCKGEGENQCACSSREPYFGYSGAFKCLQDGAGDVAFVKETTVFENLPEKADRDQYELLCLNNSRAPVDAFKECHLAQVPSHAVVARSVDGKEDLIWKLLSKAQEKFGKNKSRSFQLFGSPPGQRDLLFKDSALGFLRIPSKVDSALYLGSRYLTTLKNLRETAEEVKARYTRVVWCAVGPEEQKKCQQWSQQSGQNVTCATASTTDDCIVLVLKGEADALNLDGGYIYTAGKCGLVPVLAENRKSSKHSSLDCVLRPTEGYLAVAVVKKANEGLTWNSLKDKKSCHTAVDRTAGWNIPMGLIVNQTGSCAFDEFFSQSCAPGADPKSRLCALCAGDDQGLDKCVPNSKEKYYGYTGAFRCLAEDVGDVAFVKNDTVWENTNGESTADWAKNLNREDFRLLCLDGTRKPVTEAQSCHLAVAPNHAVVSRSDRAAHVKQVLLHQQALFGKNGKNCPDKFCLFKSETKNLLFNDNTECLAKLGGRPTYEEYLGTEYVTAIANLKKCSTSPLLEACAFLTR
modifications: apo form
notes: bovine apolactoferrin manufactured by Life Extension as a solid in a capsule, dissolved in 18.5% alcohol/water
- side effects on inhalation: no immediate deleterious side effects
